Test results taken from patent US20110294748A1 (Janssen / Centocor, published 2011).

B1: peptide-Alkaline phosphatase-His6 fusion protein of clone 11 (other)
chain: HTCFYPTLMPPELCFDTPEMPVLENRAAQGDITTPGGARRLTGDQTAALRDSLSDKPAKNIILLIGDGMGDSEITAARNYAEGAGGFFKGIDALPLTGQYTHYALNKKTGKPDYVTDSAASATAWSTGVKTYNGALGVDIHEKDHPTILEMAKAAGLATGNVSTAELQGATPAALVAHVTSRKCYGPSATSEKCPGNALEKGGKGSITEQLLNARADVTLGGGAKTFAETATAGEWQGKTLREQAQTRGYQLVSDAASLNSVTEANQQKPLLGLFADGNMPVRWLGPKATYHGNIDKPAVTCTPNPQRNDSVPTLAQMTDKAIELLSKNEKGFFLQVEGASIDKQNHAANPCGQIGETVDLDEAVQRALEFAKKEGNTLVIVTADHAHASQIVAPDTKAPGLTQALNTKDGAVMVMSYGNSEEDSQEHTGSQLRIAAYGPHAANVVGLTDQTDLFYTMKAALGLKVPGGSGGGSGGGSGGGSGTPEMPVLENRAAQGDITTPGGARRLTGDQTAALRDSLSDKPAKNIILLIGDGMGDSEITAARNYAEGAGGFFKGIDALPLTGQYTHYALNKKTGKPDYVTDSAASATAWSTGVKTYNGALGVDIHEKDHPTILEMAKAAGLATGNVSTAELQGATPAALVAHVTSRKCYGPSATSEKCPGNALEKGGKGSITEQLLNARADVTLGGGAKTFAETATAGEWQGKTLREQAQTRGYQLVSDAASLNSVTEANQQKPLLGLFADGNMPVRWLGPKATYHGNIDKPAVTCTPNPQRNDSVPTLAQMTDKAIELLSKNEKGFFLQVEGASIDKQNHAANPCGQIGETVDLDEAVQRALEFAKKEGNTLVIVTADHAHASQIVAPDTKAPGLTQALNTKDGAVMVMSYGNSEEDSQEHTGSQLRIAAYGPHAANVVGLTDQTDLFYTMKAALGLKVPGNSHHHHHH
notes: Tested as bacterial culture supernatant; also called peptide-AP fusion clone 11
B2: peptide-Alkaline phosphatase-His6 fusion protein of clone 12 (other)
chain: SNCPPLDMRLTELCVMTPEMPVLENRAAQGDITTPGGARRLTGDQTAALRDSLSDKPAKNIILLIGDGMGDSEITAARNYAEGAGGFFKGIDALPLTGQYTHYALNKKTGKPDYVTDSAASATAWSTGVKTYNGALGVDIHEKDHPTILEMAKAAGLATGNVSTAELQGATPAALVAHVTSRKCYGPSATSEKCPGNALEKGGKGSITEQLLNARADVTLGGGAKTFAETATAGEWQGKTLREQAQTRGYQLVSDAASLNSVTEANQQKPLLGLFADGNMPVRWLGPKATYHGNIDKPAVTCTPNPQRNDSVPTLAQMTDKAIELLSKNEKGFFLQVEGASIDKQNHAANPCGQIGETVDLDEAVQRALEFAKKEGNTLVIVTADHAHASQIVAPDTKAPGLTQALNTKDGAVMVMSYGNSEEDSQEHTGSQLRIAAYGPHAANVVGLTDQTDLFYTMKAALGLKVPGGSGGGSGGGSGGGSGTPEMPVLENRAAQGDITTPGGARRLTGDQTAALRDSLSDKPAKNIILLIGDGMGDSEITAARNYAEGAGGFFKGIDALPLTGQYTHYALNKKTGKPDYVTDSAASATAWSTGVKTYNGALGVDIHEKDHPTILEMAKAAGLATGNVSTAELQGATPAALVAHVTSRKCYGPSATSEKCPGNALEKGGKGSITEQLLNARADVTLGGGAKTFAETATAGEWQGKTLREQAQTRGYQLVSDAASLNSVTEANQQKPLLGLFADGNMPVRWLGPKATYHGNIDKPAVTCTPNPQRNDSVPTLAQMTDKAIELLSKNEKGFFLQVEGASIDKQNHAANPCGQIGETVDLDEAVQRALEFAKKEGNTLVIVTADHAHASQIVAPDTKAPGLTQALNTKDGAVMVMSYGNSEEDSQEHTGSQLRIAAYGPHAANVVGLTDQTDLFYTMKAALGLKVPGNSHHHHHH
notes: Tested as bacterial culture supernatant; also called peptide-AP fusion clone 12
B3: peptide-Alkaline phosphatase-His6 fusion protein of clone 8 (other)
chain: PVCPSFCYDQYVCPTTPEMPVLENRAAQGDITTPGGARRLTGDQTAALRDSLSDKPAKNIILLIGDGMGDSEITAARNYAEGAGGFFKGIDALPLTGQYTHYALNKKTGKPDYVTDSAASATAWSTGVKTYNGALGVDIHEKDHPTILEMAKAAGLATGNVSTAELQGATPAALVAHVTSRKCYGPSATSEKCPGNALEKGGKGSITEQLLNARADVTLGGGAKTFAETATAGEWQGKTLREQAQTRGYQLVSDAASLNSVTEANQQKPLLGLFADGNMPVRWLGPKATYHGNIDKPAVTCTPNPQRNDSVPTLAQMTDKAIELLSKNEKGFFLQVEGASIDKQNHAANPCGQIGETVDLDEAVQRALEFAKKEGNTLVIVTADHAHASQIVAPDTKAPGLTQALNTKDGAVMVMSYGNSEEDSQEHTGSQLRIAAYGPHAANVVGLTDQTDLFYTMKAALGLKVPGGSGGGSGGGSGGGSGTPEMPVLENRAAQGDITTPGGARRLTGDQTAALRDSLSDKPAKNIILLIGDGMGDSEITAARNYAEGAGGFFKGIDALPLTGQYTHYALNKKTGKPDYVTDSAASATAWSTGVKTYNGALGVDIHEKDHPTILEMAKAAGLATGNVSTAELQGATPAALVAHVTSRKCYGPSATSEKCPGNALEKGGKGSITEQLLNARADVTLGGGAKTFAETATAGEWQGKTLREQAQTRGYQLVSDAASLNSVTEANQQKPLLGLFADGNMPVRWLGPKATYHGNIDKPAVTCTPNPQRNDSVPTLAQMTDKAIELLSKNEKGFFLQVEGASIDKQNHAANPCGQIGETVDLDEAVQRALEFAKKEGNTLVIVTADHAHASQIVAPDTKAPGLTQALNTKDGAVMVMSYGNSEEDSQEHTGSQLRIAAYGPHAANVVGLTDQTDLFYTMKAALGLKVPGNSHHHHHH
notes: Tested as bacterial culture supernatant; also called peptide-AP fusion clone 8
B4: peptide-Alkaline phosphatase-His6 fusion protein of clone 14 (other)
chain: VECDTPSITFSPGLEALFWNTCSPTPEMPVLENRAAQGDITTPGGARRLTGDQTAALRDSLSDKPAKNIILLIGDGMGDSEITAARNYAEGAGGFFKGIDALPLTGQYTHYALNKKTGKPDYVTDSAASATAWSTGVKTYNGALGVDIHEKDHPTILEMAKAAGLATGNVSTAELQGATPAALVAHVTSRKCYGPSATSEKCPGNALEKGGKGSITEQLLNARADVTLGGGAKTFAETATAGEWQGKTLREQAQTRGYQLVSDAASLNSVTEANQQKPLLGLFADGNMPVRWLGPKATYHGNIDKPAVTCTPNPQRNDSVPTLAQMTDKAIELLSKNEKGFFLQVEGASIDKQNHAANPCGQIGETVDLDEAVQRALEFAKKEGNTLVIVTADHAHASQIVAPDTKAPGLTQALNTKDGAVMVMSYGNSEEDSQEHTGSQLRIAAYGPHAANVVGLTDQTDLFYTMKAALGLKVPGGSGGGSGGGSGGGSGTPEMPVLENRAAQGDITTPGGARRLTGDQTAALRDSLSDKPAKNIILLIGDGMGDSEITAARNYAEGAGGFFKGIDALPLTGQYTHYALNKKTGKPDYVTDSAASATAWSTGVKTYNGALGVDIHEKDHPTILEMAKAAGLATGNVSTAELQGATPAALVAHVTSRKCYGPSATSEKCPGNALEKGGKGSITEQLLNARADVTLGGGAKTFAETATAGEWQGKTLREQAQTRGYQLVSDAASLNSVTEANQQKPLLGLFADGNMPVRWLGPKATYHGNIDKPAVTCTPNPQRNDSVPTLAQMTDKAIELLSKNEKGFFLQVEGASIDKQNHAANPCGQIGETVDLDEAVQRALEFAKKEGNTLVIVTADHAHASQIVAPDTKAPGLTQALNTKDGAVMVMSYGNSEEDSQEHTGSQLRIAAYGPHAANVVGLTDQTDLFYTMKAALGLKVPGNSHHHHHH
notes: Tested as bacterial culture supernatant; also called peptide-AP fusion clone 14
B5: peptide-Alkaline phosphatase-His6 fusion protein of clone 6 (other)
chain: AECEWPWLTLELCQSTPEMPVLENRAAQGDITTPGGARRLTGDQTAALRDSLSDKPAKNIILLIGDGMGDSEITAARNYAEGAGGFFKGIDALPLTGQYTHYALNKKTGKPDYVTDSAASATAWSTGVKTYNGALGVDIHEKDHPTILEMAKAAGLATGNVSTAELQGATPAALVAHVTSRKCYGPSATSEKCPGNALEKGGKGSITEQLLNARADVTLGGGAKTFAETATAGEWQGKTLREQAQTRGYQLVSDAASLNSVTEANQQKPLLGLFADGNMPVRWLGPKATYHGNIDKPAVTCTPNPQRNDSVPTLAQMTDKAIELLSKNEKGFFLQVEGASIDKQNHAANPCGQIGETVDLDEAVQRALEFAKKEGNTLVIVTADHAHASQIVAPDTKAPGLTQALNTKDGAVMVMSYGNSEEDSQEHTGSQLRIAAYGPHAANVVGLTDQTDLFYTMKAALGLKVPGGSGGGSGGGSGGGSGTPEMPVLENRAAQGDITTPGGARRLTGDQTAALRDSLSDKPAKNIILLIGDGMGDSEITAARNYAEGAGGFFKGIDALPLTGQYTHYALNKKTGKPDYVTDSAASATAWSTGVKTYNGALGVDIHEKDHPTILEMAKAAGLATGNVSTAELQGATPAALVAHVTSRKCYGPSATSEKCPGNALEKGGKGSITEQLLNARADVTLGGGAKTFAETATAGEWQGKTLREQAQTRGYQLVSDAASLNSVTEANQQKPLLGLFADGNMPVRWLGPKATYHGNIDKPAVTCTPNPQRNDSVPTLAQMTDKAIELLSKNEKGFFLQVEGASIDKQNHAANPCGQIGETVDLDEAVQRALEFAKKEGNTLVIVTADHAHASQIVAPDTKAPGLTQALNTKDGAVMVMSYGNSEEDSQEHTGSQLRIAAYGPHAANVVGLTDQTDLFYTMKAALGLKVPGNSHHHHHH
notes: Tested as bacterial culture supernatant; also called peptide-AP fusion clone 6
B6: peptide-Alkaline phosphatase-His6 fusion protein of clone 9 (other)
chain: FTCAVYSLSELDCRDTPEMPVLENRAAQGDITTPGGARRLTGDQTAALRDSLSDKPAKNIILLIGDGMGDSEITAARNYAEGAGGFFKGIDALPLTGQYTHYALNKKTGKPDYVTDSAASATAWSTGVKTYNGALGVDIHEKDHPTILEMAKAAGLATGNVSTAELQGATPAALVAHVTSRKCYGPSATSEKCPGNALEKGGKGSITEQLLNARADVTLGGGAKTFAETATAGEWQGKTLREQAQTRGYQLVSDAASLNSVTEANQQKPLLGLFADGNMPVRWLGPKATYHGNIDKPAVTCTPNPQRNDSVPTLAQMTDKAIELLSKNEKGFFLQVEGASIDKQNHAANPCGQIGETVDLDEAVQRALEFAKKEGNTLVIVTADHAHASQIVAPDTKAPGLTQALNTKDGAVMVMSYGNSEEDSQEHTGSQLRIAAYGPHAANVVGLTDQTDLFYTMKAALGLKVPGGSGGGSGGGSGGGSGTPEMPVLENRAAQGDITTPGGARRLTGDQTAALRDSLSDKPAKNIILLIGDGMGDSEITAARNYAEGAGGFFKGIDALPLTGQYTHYALNKKTGKPDYVTDSAASATAWSTGVKTYNGALGVDIHEKDHPTILEMAKAAGLATGNVSTAELQGATPAALVAHVTSRKCYGPSATSEKCPGNALEKGGKGSITEQLLNARADVTLGGGAKTFAETATAGEWQGKTLREQAQTRGYQLVSDAASLNSVTEANQQKPLLGLFADGNMPVRWLGPKATYHGNIDKPAVTCTPNPQRNDSVPTLAQMTDKAIELLSKNEKGFFLQVEGASIDKQNHAANPCGQIGETVDLDEAVQRALEFAKKEGNTLVIVTADHAHASQIVAPDTKAPGLTQALNTKDGAVMVMSYGNSEEDSQEHTGSQLRIAAYGPHAANVVGLTDQTDLFYTMKAALGLKVPGNSHHHHHH
notes: Tested as bacterial culture supernatant; also called peptide-AP fusion clone 9

Each binder was assayed against T1, soluble IGF1R (sIGF1R), extracellular domain of human insulin-like growth factor 1 receptor, carboxy-terminal … (human, UniProt P08069 31-932) (assay: ELISA, culture supernatant on 2 µg/ml coated sIGF1R, Attophos detection).
T1 construct: Bought from R&D Systems; GenBank NP-000866 is printed for the whole receptor; also called IFG1R
Description: The binding of purified peptide-AP fusion proteins to sIGF1R was assessed using ELISA against immobilized sIGF1R. Briefly, bacteria transformed with each peptide-AP fusion expression vector were grown overnight and the following day the cultures were clarified by centrifugation at 4,500 rpm, 4° C. The supernatants were collected and 75 μl of each supernatant was assayed for binding to 2 μg/ml sIGF1R immobilized on ELISA plates. The bound peptides were detected using the Attophos Substrate (Roche, Indianapolis, Ind.) following the manufacturer's recommendation and read using a Molecular Devices M5 plate reader.

Q: Does B1 bind?
A: Result: binds

Q: Does B2 bind?
A: Result: binds

Q: Does B3 bind?
A: Result: binds

Q: Does B4 bind?
A: Result: binds

Q: Does B5 bind?
A: Result: binds

Q: Does B6 bind?
A: Result: binds
